What was measured:
human CD33 V37A = human CD33 V37A (human, UniProt P20138 18-364); experiment: alanine scan, flow cytometry;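 also: HEK293-T cells transiently expressing single-residue alanine mutants of CD33 (alanine swapped to serine), antibody binding read by fluorescence in duplicate, background-subtracted, expressed relative to wild-type CD33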
human CD33 L38A = human CD33 L38A (human, UniProt P20138 18-364); experiment: alanine scan, flow cytometry;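 also: HEK293-T cells transiently expressing single-residue alanine mutants of CD33 (alanine swapped to serine), antibody binding read by fluorescence in duplicate, background-subtracted, expressed relative to wild-type CD33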
human CD33 T42A = human CD33 T42A (human, UniProt P20138 18-364); experiment: alanine scan, flow cytometry;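 also: HEK293-T cells transiently expressing single-residue alanine mutants of CD33 (alanine swapped to serine), antibody binding read by fluorescence in duplicate, background-subtracted, expressed relative to wild-type CD33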
human CD33 P46A = human CD33 P46A (human, UniProt P20138 18-364); experiment: alanine scan, flow cytometry;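 also: HEK293-T cells transiently expressing single-residue alanine mutants of CD33 (alanine swapped to serine), antibody binding read by fluorescence in duplicate, background-subtracted, expressed relative to wild-type CD33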
human CD33 E63A = human CD33 E63A (human, UniProt P20138 18-364); experiment: alanine scan, flow cytometry
human CD33 V82A = human CD33 V82A (human, UniProt P20138 18-364); experiment: alanine scan, flow cytometry
human CD33 E84A = human CD33 E84A (human, UniProt P20138 18-364); experiment: alanine scan, flow cytometry
human CD33 L92A = human CD33 L92A (human, UniProt P20138 18-364); experiment: alanine scan, flow cytometry
[1] = biological target: T1, human CD33 extracellular region, wild type (human, UniProt P20138 18-259); experiment: BLI Octet, IgG captured on AHC, CD33 analyte;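 also: CD33 variants and wild type run as analyte at 5, 50 and 500 nM, 700 s association then 1200 s dissociation, buffer-only reference subtracted, global 1:1 fit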
T1 construct: also called WT; CD33 wt
Method: (§1) Human CD33 wt and variants, were used as analyte at 3 different concentrations (500, 50 and 5 nM). Association of the analyte to the antibodies was monitored for 700 s and dissociation of the analyte from the antibodies was monitored for 1200 s. Reference subtraction was performed against buffer only wells. AHC tips were regenerated using 10 mM Glycine-HCl pH 1.7. Data were analyzed with Octet Data Analysis software HT 12.0. Data were fitted to a 1:1 binding model. Kinetic rates ka and kd and response signal were globally fitted.

[2] = biological target: human CD33 extracellular region N20S (human, UniProt P20138 21-259); experiment: BLI Octet, IgG captured on AHC, CD33 analyte;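 also: CD33 variants and wild type run as analyte at 5, 50 and 500 nM, 700 s association then 1200 s dissociation, buffer-only reference subtracted, global 1:1 fit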
Method: as §1

[3] = biological target: human CD33 extracellular region N20K (human, UniProt P20138 21-259); experiment: BLI Octet, IgG captured on AHC, CD33 analyte;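 also: CD33 variants and wild type run as analyte at 5, 50 and 500 nM, 700 s association then 1200 s dissociation, buffer-only reference subtracted, global 1:1 fit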
Method: as §1

[4] = biological target: human CD33 extracellular region F21I (human, UniProt P20138 22-259); experiment: BLI Octet, IgG captured on AHC, CD33 analyte;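 also: CD33 variants and wild type run as analyte at 5, 50 and 500 nM, 700 s association then 1200 s dissociation, buffer-only reference subtracted, global 1:1 fit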
Method: as §1

[5] = biological target: human CD33 extracellular region F21S (human, UniProt P20138 22-259); experiment: BLI Octet, IgG captured on AHC, CD33 analyte
Method: as §1

[6] = biological target: human CD33 extracellular region F21M (human, UniProt P20138 22-259); experiment: BLI Octet, IgG captured on AHC, CD33 analyte
Method: as §1

[7] = biological target: human CD33 extracellular region F21N (human, UniProt P20138 22-259); experiment: BLI Octet, IgG captured on AHC, CD33 analyte
Method: as §1

[8] = biological target: human CD33 extracellular region F21Q (human, UniProt P20138 22-259); experiment: BLI Octet, IgG captured on AHC, CD33 analyte
Method: as §1

[9] = biological target: human CD33 extracellular region F21H (human, UniProt P20138 22-259); experiment: BLI Octet, IgG captured on AHC, CD33 analyte
Method: as §1

[10] = biological target: human CD33 extracellular region W22S (human, UniProt P20138 18-259); experiment: BLI Octet, IgG captured on AHC, CD33 analyte
Method: as §1

[11] = biological target: human CD33 extracellular region W22T (human, UniProt P20138 18-259); experiment: BLI Octet, IgG captured on AHC, CD33 analyte
Method: as §1

[12] = biological target: human CD33 extracellular region W22E (human, UniProt P20138 18-259); experiment: BLI Octet, IgG captured on AHC, CD33 analyte
Method: as §1

[13] = biological target: human CD33 extracellular region W22D (human, UniProt P20138 18-259); experiment: BLI Octet, IgG captured on AHC, CD33 analyte
Method: as §1

[14] = biological target: human CD33 extracellular region F44P (human, UniProt P20138 18-259); experiment: BLI Octet, IgG captured on AHC, CD33 analyte
Method: as §1

[15] = biological target: human CD33 extracellular region F44S (human, UniProt P20138 18-259); experiment: BLI Octet, IgG captured on AHC, CD33 analyte
Method: as §1

[16] = biological target: human CD33 extracellular region H45Y (human, UniProt P20138 18-259); experiment: BLI Octet, IgG captured on AHC, CD33 analyte
Method: as §1

[17] = biological target: human CD33 extracellular region P48F (human, UniProt P20138 18-259); experiment: BLI Octet, IgG captured on AHC, CD33 analyte
Method: as §1

[18] = biological target: human CD33 extracellular region P48D (human, UniProt P20138 18-259); experiment: BLI Octet, IgG captured on AHC, CD33 analyte
Method: as §1

[19] = biological target: human CD33 extracellular region P48S (human, UniProt P20138 18-259); experiment: BLI Octet, IgG captured on AHC, CD33 analyte
Method: as §1

[20] = biological target: human CD33 extracellular region Y50S (human, UniProt P20138 18-259); experiment: BLI Octet, IgG captured on AHC, CD33 analyte
Method: as §1

[21] = biological target: human CD33 extracellular region Y50L (human, UniProt P20138 18-259); experiment: BLI Octet, IgG captured on AHC, CD33 analyte
Method: as §1

[22] = biological target: human CD33 extracellular region Y50K (human, UniProt P20138 18-259); experiment: BLI Octet, IgG captured on AHC, CD33 analyte
Method: as §1

[23] = biological target: human CD33 extracellular region Y50H (human, UniProt P20138 18-259); experiment: BLI Octet, IgG captured on AHC, CD33 analyte
Method: as §1

[24] = biological target: human CD33 extracellular region Y50H_Y49H (human, UniProt P20138 18-259); experiment: BLI Octet, IgG captured on AHC, CD33 analyte
Method: as §1

[25] = biological target: human CD33 extracellular region F21S_W22R (human, UniProt P20138 23-259); experiment: BLI Octet, IgG captured on AHC, CD33 analyte
Sequence of human CD33 extracellular region F21S_W22R (P20138 other isoform, or with tags, fused parts or gaps F21S W22R F21S W22R): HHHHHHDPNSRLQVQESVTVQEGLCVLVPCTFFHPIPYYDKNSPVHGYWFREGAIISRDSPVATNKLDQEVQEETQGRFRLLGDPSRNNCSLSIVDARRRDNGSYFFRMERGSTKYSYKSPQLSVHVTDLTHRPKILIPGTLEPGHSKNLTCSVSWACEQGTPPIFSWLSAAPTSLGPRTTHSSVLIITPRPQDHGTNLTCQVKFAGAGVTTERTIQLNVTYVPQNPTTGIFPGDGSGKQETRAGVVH
Method: as §1

Sequence of human CD33 extracellular region F21M (P20138 other isoform, or with tags, fused parts or gaps F21M F21M): as the sequence (P20138 other isoform, or with tags, fused parts or gaps F21S W22R F21S W22R) above, with S10M, R11W counted along it
Sequence of human CD33 extracellular region W22S (P20138 other isoform, or with tags, fused parts or gaps W22S W22S): as the sequence (P20138 other isoform, or with tags, fused parts or gaps F21S W22R F21S W22R) above, with S10F, R11S counted along it
Sequence of human CD33 extracellular region W22D (P20138 other isoform, or with tags, fused parts or gaps W22D W22D): as the sequence (P20138 other isoform, or with tags, fused parts or gaps F21S W22R F21S W22R) above, with S10F, R11D counted along it
Sequence of human CD33 extracellular region Y50K (P20138 other isoform, or with tags, fused parts or gaps Y50K Y50K): as the sequence (P20138 other isoform, or with tags, fused parts or gaps F21S W22R F21S W22R) above, with S10F, R11W, Y39K counted along it
Sequence of human CD33 T42A (P20138 18-364 T42A limits assumed): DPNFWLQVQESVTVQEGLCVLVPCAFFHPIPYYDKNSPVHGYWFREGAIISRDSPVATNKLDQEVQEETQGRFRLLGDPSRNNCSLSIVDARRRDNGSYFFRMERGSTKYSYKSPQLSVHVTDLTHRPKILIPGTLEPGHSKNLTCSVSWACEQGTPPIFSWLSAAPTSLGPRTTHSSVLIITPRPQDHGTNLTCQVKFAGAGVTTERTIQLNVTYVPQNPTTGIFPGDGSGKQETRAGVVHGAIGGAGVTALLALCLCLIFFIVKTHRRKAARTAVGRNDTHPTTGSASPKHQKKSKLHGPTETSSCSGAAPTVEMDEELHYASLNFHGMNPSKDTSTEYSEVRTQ
Sequence of human CD33 extracellular region W22E (P20138 other isoform, or with tags, fused parts or gaps W22E W22E): as the sequence (P20138 other isoform, or with tags, fused parts or gaps F21S W22R F21S W22R) above, with S10F, R11E counted along it
Sequence of human CD33 P46A (P20138 18-364 P46A limits assumed): as the sequence (P20138 18-364 T42A limits assumed) above, with A25T, P29A counted along it
Sequence of human CD33 extracellular region F44S (P20138 other isoform, or with tags, fused parts or gaps F44S F44S): as the sequence (P20138 other isoform, or with tags, fused parts or gaps F21S W22R F21S W22R) above, with S10F, R11W, F33S counted along it
Sequence of human CD33 extracellular region P48D (P20138 other isoform, or with tags, fused parts or gaps P48D P48D): as the sequence (P20138 other isoform, or with tags, fused parts or gaps F21S W22R F21S W22R) above, with S10F, R11W, P37D counted along it
Sequence of human CD33 extracellular region Y50H (P20138 other isoform, or with tags, fused parts or gaps Y50H Y50H): as the sequence (P20138 other isoform, or with tags, fused parts or gaps F21S W22R F21S W22R) above, with S10F, R11W, Y39H counted along it
Sequence of human CD33 V82A (P20138 18-364 V82A limits assumed): as the sequence (P20138 18-364 T42A limits assumed) above, with A25T, V65A counted along it
Sequence of human CD33 extracellular region F44P (P20138 other isoform, or with tags, fused parts or gaps F44P F44P): as the sequence (P20138 other isoform, or with tags, fused parts or gaps F21S W22R F21S W22R) above, with S10F, R11W, F33P counted along it
Sequence of human CD33 extracellular region W22T (P20138 other isoform, or with tags, fused parts or gaps W22T W22T): as the sequence (P20138 other isoform, or with tags, fused parts or gaps F21S W22R F21S W22R) above, with S10F, R11T counted along it
Sequence of human CD33 extracellular region N20K (P20138 other isoform, or with tags, fused parts or gaps N20K N20K): as the sequence (P20138 other isoform, or with tags, fused parts or gaps F21S W22R F21S W22R) above, with N9K, S10F, R11W counted along it
T1 sequence (P20138 other isoform, or with tags, fused parts or gaps): as the sequence (P20138 other isoform, or with tags, fused parts or gaps F21S W22R F21S W22R) above, with S10F, R11W counted along it
Sequence of human CD33 L92A (P20138 18-364 L92A limits assumed): as the sequence (P20138 18-364 T42A limits assumed) above, with A25T, L75A counted along it

B1: Refmab #1 (antibody, V domains shown)
VH: EVQLVQSGAEVKKPGSSVKVSCKASGYTITDSNIHWVRQAPGQSLEWIGYIYPYNGGTDYNQKFKNRATLTVDNPTNTAYMELSSLRSEDTAFYYCVNGNPWLAYWGQGTLVTVSS
VL: DIQLTQSPSTLSASVGDRVTITCRASESLDNYGIRFLTWFQQKPGKAPKLLMYAASNQGSGVPSRFSGSGSGTEFTLTISSLQPDDFATYYCQQTKEVPWSFGQGTKVEVK
notes: Full-length format is human IgG1 (Absolute Antibody Ab00283-10.0); The alanine scan used IgG or Fab; also called hP67.6
Mean % WT Binding (human CD33 V37A): 78.7 % WT
Mean % WT Binding (human CD33 L38A): 94.8 % WT
Mean % WT Binding (human CD33 T42A): 105 % WT
Mean % WT Binding (human CD33 P46A): 64.8 % WT
Mean % WT Binding (human CD33 E63A): 107 % WT
Mean % WT Binding (human CD33 V82A): 99.6 % WT
Mean % WT Binding (human CD33 E84A): 92.2 % WT
Mean % WT Binding (human CD33 L92A): 75.2 % WT

B2: Refmab #1 (antibody, human IgG1, V domains shown)
VH: B1 VH
VL: B1 VL
notes: also called hP67.6; Absolute Antibody Cat. No. Ab00283-10.0
% WT binding [1]: 100%
% WT binding [2]: 37.8%
% WT binding [3]: 0%
% WT binding [4]: 0%
% WT binding [5]: 0%
% WT binding [6]: 0%
% WT binding [7]: 0%
% WT binding [8]: 0%
% WT binding [9]: 0%
% WT binding [10]: 45.9%
% WT binding [11]: 15%
% WT binding [12]: 26.4%
% WT binding [13]: 0%
% WT binding [14]: 0%
% WT binding [15]: 63.9%
% WT binding [16]: 55%
% WT binding [17]: 76.2%
% WT binding [18]: 71.9%
% WT binding [19]: 79.5%
% WT binding [20]: 75.5%
% WT binding [21]: 76.1%
% WT binding [22]: 101%
% WT binding [23]: 104%
% WT binding [24]: 76.4%
% WT binding [25]: 0%

B3: Refmab #2 (antibody, V domains shown)
VH: QVQLVQSGAEVKKPGSSVKVSCKASGGTFSDYAISWVRQAPGQGLEWMGRIIPILGVADYAQKFQGRVTITADKSTRTAYMELSSLRSEDTAVYYCARNWADAFDIWGQGTMVTVSS
VL: DIQLTQSPSSLSASVGDRVTITCRASQGISSVLAWYQQKPGKAPKLLIYDASSLESGVPSRFSGSGSGTDFTLTISSLQPEDFATYYCQQFDSSITFGQGTKLEIK
notes: Full-length format is human IgG1 Fc silent (PG-LALA); The alanine scan used IgG or Fab
Mean % WT Binding (human CD33 V37A): 118 % WT
Mean % WT Binding (human CD33 L38A): 112 % WT
Mean % WT Binding (human CD33 T42A): 112 % WT
Mean % WT Binding (human CD33 P46A): 104 % WT
Mean % WT Binding (human CD33 E63A): 107 % WT
Mean % WT Binding (human CD33 V82A): 116 % WT
Mean % WT Binding (human CD33 E84A): 114 % WT
Mean % WT Binding (human CD33 L92A): 106 % WT

B4: Refmab #4 (antibody, V domains shown)
VH: QVQLVQSGAEVKKPGESVKVSCKASGYTFTNYGMNWVKQAPGQGLEWMGWINTYTGEPTYADKFQGRVTMTTDTSTSTAYMEIRNLGGDDTAVYYCARWSWSDGYYVYFDYWGQGTSVTVSS
VL: DIVMTQSPDSLTVSLGERTTINCKSSQSVLDSSTNKNSLAWYQQKPGQPPKLLLSWASTRESGIPDRFSGSGSGTDFTLTIDSPQPEDSATYYCQQSAHFPITFGQGTRLEIK
notes: as for B3
Mean % WT Binding (human CD33 V37A): 78.7 % WT
Mean % WT Binding (human CD33 L38A): 96.8 % WT
Mean % WT Binding (human CD33 T42A): 67.4 % WT
Mean % WT Binding (human CD33 P46A): 135 % WT
Mean % WT Binding (human CD33 E63A): 84.1 % WT
Mean % WT Binding (human CD33 V82A): 144 % WT
Mean % WT Binding (human CD33 E84A): 120 % WT
Mean % WT Binding (human CD33 L92A): 85.2 % WT

B5: Refmab #4 (antibody, human IgG1, V domains shown)
VH: B4 VH
VL: B4 VL
% WT binding [1]: 100%
% WT binding [2]: 84.1%
% WT binding [3]: 102%
% WT binding [4]: 84.2%
% WT binding [5]: 78.3%
% WT binding [6]: 80%
% WT binding [7]: 83%
% WT binding [8]: 89%
% WT binding [9]: 108%
% WT binding [10]: 93%
% WT binding [11]: 87.9%
% WT binding [12]: 82.8%
% WT binding [13]: 104%
% WT binding [14]: 87.4%
% WT binding [15]: 84.6%
% WT binding [16]: 69.3%
% WT binding [17]: 9.11%
% WT binding [18]: 5.75%
% WT binding [19]: 21.8%
% WT binding [20]: 22.6%
% WT binding [21]: 25.3%
% WT binding [22]: 0%
% WT binding [23]: 28%
% WT binding [24]: 0%
% WT binding [25]: 110%

B6: Refmab #3 (antibody, V domains shown)
VH: QVQLVQSGAEVKKPGSSVKVSCKASGYTFTDYNMHWVRQAPGQGLEWIGYIYPYNGGTGYNQKFKSKATITADESTNTAYMELSSLRSEDTAVYYCARGRPAMDYWGQGTLVTVSS
VL: DIQMTQSPSSLSASVGDRVTITCRASESVDNYGISFMNWFQQKPGKAPKLLIYAASNQGSGVPSRFSGSGSGTDFTLTISSLQPDDFATYYCQQSKEVPWTFGQGTKVEIK
notes: as for B3
Mean % WT Binding (human CD33 V37A): 150 % WT
Mean % WT Binding (human CD33 L38A): 192 % WT
Mean % WT Binding (human CD33 T42A): 198 % WT
Mean % WT Binding (human CD33 P46A): 8.8 % WT
Mean % WT Binding (human CD33 E63A): 124 % WT
Mean % WT Binding (human CD33 V82A): 141 % WT
Mean % WT Binding (human CD33 E84A): 137 % WT
Mean % WT Binding (human CD33 L92A): 129 % WT

B7: Refmab #3 (antibody, human IgG1, V domains shown)
VH: B6 VH
VL: B6 VL
% WT binding [1]: 100%
% WT binding [2]: 34.4%
% WT binding [3]: 0%
% WT binding [4]: 0%
% WT binding [5]: 0%
% WT binding [6]: 0%
% WT binding [7]: 0%
% WT binding [8]: 0%
% WT binding [9]: 0%
% WT binding [10]: 20.1%
% WT binding [11]: 3.39%
% WT binding [12]: 0%
% WT binding [13]: 0%
% WT binding [14]: 0%
% WT binding [15]: 39%
% WT binding [16]: 35.1%
% WT binding [17]: 74.3%
% WT binding [18]: 76.4%
% WT binding [19]: 74%
% WT binding [20]: 70.9%
% WT binding [21]: 74.4%
% WT binding [22]: 122%
% WT binding [23]: 111%
% WT binding [24]: 84.4%
% WT binding [25]: 0%

Reference: patent publication US20260242735A1 (UNIVERSIT T BASEL, published 2026)
